# Substitutions are numbered along the chain they refer to. Names may count otherwise.
# B1: GLS3000 V27cE one-arm antibody (antibody, human IgG1, kappa, L234A L235A, N297A, name in Kabat numbering)
# heavy: QVQLVESGGGVVQPGRSLRLSCAASGFTFSNAWMHWVRQAPGKGLEWVAQIKAKSNNYATYYAESVKGRFTISRDDSKNSLYLQMNSLKTEDTAVYYCRYVHYGAYYGVDAWGQGTTVTVSSASTKGPSVFPLAPSSKSTSGGTAALGCLVKDYFPEPVTVSWNSGALTSGVHTFPAVLQSSGLYSLSSVVTVPSSSLGTQTYICNVNHKPSNTKVDKKVEPKSCDKTHTCPPCPAPEAAGGPSVFLFPPKPKDTLMISRTPEVTCVVVDVSHEDPEVKFNWYVDGVEVHNAKTKPREEQYASTYRVVSVLTVLHQDWLNGKEYKCKVSNKALPAPIEKTISKAKGQPREPQVYTLPPSRCELTKNQVSLSCAVKGFYPSDIAVEWESNGQPENNYKTTPPVLDSDGSFFLVSKLTVDKSRWQQGNVFSCSVMHEALHNHYTQKSLSLSPDYKDDDDK
# chain: EPKSSDKTHTCPPCPAPELLGGPSVFLFPPKPKDTLMISRTPEVTCVVVDVSHEDPEVKFNWYVDGVEVHNAKTKPREEQYNSTYRVVSVLTVLHQDWLNGKEYKCKVSNKALPAPIEKTISKAKGQPREPQVCTLPPSRDELTKNQVSLWCLVKGFYPSDIAVEWESNGQPENNYKTTPPVLDSDGSFFLYSKLTVDKSRWQQGNVFSCSVMHEALHNRYTQKSLSLSP
# light: DIVMTQSPLSLPVTPGEPASISCRSSQSLEHSNRNTYLHWYQQKPGQAPRLLIYKVSNRFSGVPDRFSGSGSGTDFTLKISRVEAEDVGVYYCGQGTQVPYTFGQGTKLEIKRTVAAPSVFIFPPSDEQLKSGTASVVCLLNNFYPREAKVQWKVDNALQSGNSQESVTEQDSKDSTYSLSSTLTLSKADYEKHKVYACEVTHQGLSSPVTKSFNRGEC
# B2: GLS3000 Y32D one-arm antibody (antibody, human IgG1, kappa, L234A L235A, N297A, name in Kabat numbering)
# heavy: B1 heavy
# chain: B1 chain
# light: B1 light with E30V, Y37D
# B3: GLS3000 V94H one-arm antibody (antibody, human IgG1, kappa, L234A L235A, N297A, name in Kabat numbering)
# heavy: B1 heavy
# chain: B1 chain
# light: B1 light with E30V, V99H
# B4: GLS3000 V94G one-arm antibody (antibody, human IgG1, kappa, L234A L235A, N297A, name in Kabat numbering)
# heavy: B1 heavy
# chain: B1 chain
# light: B1 light with E30V, V99G
# B5: GLS3000 V27cL one-arm antibody (antibody, human IgG1, kappa, L234A L235A, N297A, name in Kabat numbering)
# heavy: B1 heavy
# chain: B1 chain
# light: B1 light with E30L
# B6: GLS3000 V51D one-arm antibody (antibody, human IgG1, kappa, L234A L235A, N297A, name in Kabat numbering)
# heavy: B1 heavy
# chain: B1 chain
# light: B1 light with E30V, V56D
# B7: GLS3000 V94N one-arm antibody (antibody, human IgG1, kappa, L234A L235A, N297A, name in Kabat numbering)
# heavy: B1 heavy
# chain: B1 chain
# light: B1 light with E30V, V99N
# B8: GLS3000 V94W one-arm antibody (antibody, human IgG1, kappa, L234A L235A, N297A, name in Kabat numbering)
# heavy: B1 heavy
# chain: B1 chain
# light: B1 light with E30V, V99W
# B9: GLS3000 V94R one-arm antibody (antibody, human IgG1, kappa, L234A L235A, N297A, name in Kabat numbering)
# heavy: B1 heavy
# chain: B1 chain
# light: B1 light with E30V, V99R
# B10: GLS3000 V94E one-arm antibody (antibody, human IgG1, kappa, L234A L235A, N297A, name in Kabat numbering)
# heavy: B1 heavy
# chain: B1 chain
# light: B1 light with E30V, V99E
# B11: GLS3000 V94M one-arm antibody (antibody, human IgG1, kappa, L234A L235A, N297A, name in Kabat numbering)
# heavy: B1 heavy
# chain: B1 chain
# light: B1 light with E30V, V99M
# B12: GLS3000 V94Y one-arm antibody (antibody, human IgG1, kappa, L234A L235A, N297A, name in Kabat numbering)
# heavy: B1 heavy
# chain: B1 chain
# light: B1 light with E30V, V99Y
# B13: GLS3000 Y32P one-arm antibody (antibody, human IgG1, kappa, L234A L235A, N297A, name in Kabat numbering)
# heavy: B1 heavy
# chain: B1 chain
# light: B1 light with E30V, Y37P
# B14: GLS3000 V94L one-arm antibody (antibody, human IgG1, kappa, L234A L235A, N297A, name in Kabat numbering)
# heavy: B1 heavy
# chain: B1 chain
# light: B1 light with E30V, V99L
# B15: GLS3000 V94K one-arm antibody (antibody, human IgG1, kappa, L234A L235A, N297A, name in Kabat numbering)
# heavy: B1 heavy
# chain: B1 chain
# light: B1 light with E30V, V99K
# B16: GLS3000 V27cY one-arm antibody (antibody, human IgG1, kappa, L234A L235A, N297A, name in Kabat numbering)
# heavy: B1 heavy
# chain: B1 chain
# light: B1 light with E30Y
# B17: GLS3000 V51I one-arm antibody (antibody, human IgG1, kappa, L234A L235A, N297A, name in Kabat numbering)
# heavy: B1 heavy
# chain: B1 chain
# light: B1 light with E30V, V56I
# B18: GLS3000 V27cI one-arm antibody (antibody, human IgG1, kappa, L234A L235A, N297A, name in Kabat numbering)
# heavy: B1 heavy
# chain: B1 chain
# light: B1 light with E30I
# B19: GLS3000 Y96D one-arm antibody (antibody, human IgG1, kappa, L234A L235A, N297A, name in Kabat numbering)
# heavy: B1 heavy
# chain: B1 chain
# light: B1 light with E30V, Y101D
# B20: GLS3000 V27cS one-arm antibody (antibody, human IgG1, kappa, L234A L235A, N297A, name in Kabat numbering)
# heavy: B1 heavy
# chain: B1 chain
# light: B1 light with E30S
# B21: GLS3000 V51P one-arm antibody (antibody, human IgG1, kappa, L234A L235A, N297A, name in Kabat numbering)
# heavy: B1 heavy
# chain: B1 chain
# light: B1 light with E30V, V56P
# B22: GLS3000 V94Q one-arm antibody (antibody, human IgG1, kappa, L234A L235A, N297A, name in Kabat numbering)
# heavy: B1 heavy
# chain: B1 chain
# light: B1 light with E30V, V99Q
# B23: GLS3000 Y32F one-arm antibody (antibody, human IgG1, kappa, L234A L235A, N297A, name in Kabat numbering)
# heavy: B1 heavy
# chain: B1 chain
# light: B1 light with E30V, Y37F
# B24: GLS3000 V94P one-arm antibody (antibody, human IgG1, kappa, L234A L235A, N297A, name in Kabat numbering)
# heavy: B1 heavy
# chain: B1 chain
# light: B1 light with E30V, V99P
# B25: GLS3000 V94S one-arm antibody (antibody, human IgG1, kappa, L234A L235A, N297A, name in Kabat numbering)
# heavy: B1 heavy
# chain: B1 chain
# light: B1 light with E30V, V99S
# B26: GLS3000 V94F one-arm antibody (antibody, human IgG1, kappa, L234A L235A, N297A, name in Kabat numbering)
# heavy: B1 heavy
# chain: B1 chain
# light: B1 light with E30V, V99F
# B27: GLS3000 V94D one-arm antibody (antibody, human IgG1, kappa, L234A L235A, N297A, name in Kabat numbering)
# heavy: B1 heavy
# chain: B1 chain
# light: B1 light with E30V, V99D
# B28: GLS3000 V94T one-arm antibody (antibody, human IgG1, kappa, L234A L235A, N297A, name in Kabat numbering)
# heavy: B1 heavy
# chain: B1 chain
# light: B1 light with E30V, V99T
# B29: GLS3000 Y32A one-arm antibody (antibody, human IgG1, kappa, L234A L235A, N297A, name in Kabat numbering)
# heavy: B1 heavy
# chain: B1 chain
# light: B1 light with E30V, Y37A
# B30: GLS3000 V27cP one-arm antibody (antibody, human IgG1, kappa, L234A L235A, N297A, name in Kabat numbering)
# heavy: B1 heavy
# chain: B1 chain
# light: B1 light with E30P
# B31: GLS3000 V94A one-arm antibody (antibody, human IgG1, kappa, L234A L235A, N297A, name in Kabat numbering)
# heavy: B1 heavy
# chain: B1 chain
# light: B1 light with E30V, V99A
# B32: GLS3000 V51E one-arm antibody (antibody, human IgG1, kappa, L234A L235A, N297A, name in Kabat numbering)
# heavy: B1 heavy
# chain: B1 chain
# light: B1 light with E30V, V56E
# B33: GLS3000 V51G one-arm antibody (antibody, human IgG1, kappa, L234A L235A, N297A, name in Kabat numbering)
# heavy: B1 heavy
# chain: B1 chain
# light: B1 light with E30V, V56G
# B34: GLS3000 V94I one-arm antibody (antibody, human IgG1, kappa, L234A L235A, N297A, name in Kabat numbering)
# heavy: B1 heavy
# chain: B1 chain
# light: B1 light with E30V, V99I
# Molecular target: T1, CD3ε homodimer protein (human, UniProt P07766 23-126, limits assumed)
# T1 construct: also called CD3 (CD3ε)
# T1 sequence (P07766 23-126 limits assumed): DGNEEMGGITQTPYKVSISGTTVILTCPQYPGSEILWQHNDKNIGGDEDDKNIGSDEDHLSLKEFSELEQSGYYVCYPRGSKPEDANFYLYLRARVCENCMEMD
# Test: SPR Biacore T200, CD3ε homodimer on chip;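 further: Light-chain single-residue variant antibodies injected over amine-coupled CD3ε homodimer on a CM4 chip at 25 °C, bound amount divided by that of the GLS3000-containing antibody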
# Experimental: Each one-amino acid altered form constructed, expressed, and purified in the paragraph (6-2) was evaluated using Biacore T200 (GE Healthcare Japan Corp.). An appropriate amount of CD3ε homodimer protein was immobilized onto Sensor chip CM4 (GE Healthcare Japan Corp.) by the amine coupling method. Then, the antibody having an appropriate concentration was injected thereto as an analyte and allowed to interact with the CD3ε homodimer protein on the sensor chip. Then, the sensor chip was regenerated by the injection of 10 mmol/L glycine-HCl (pH 1.5). The assay was conducted at 25° C., and HBS-EP+ (GE Healthcare Japan Corp.) was used as a running buffer. […] Each parameter was calculated using Biacore T200 Evaluation Software (GE Healthcare Japan Corp.).
# Specifically, when the amount of the GLS3000-containing antibody bound was defined as X and the amount of the L chain one-amino acid altered form bound was defined as Y, a value of Z (ratio of amounts bound)=Y/X was used.
row,ratio of amount bound vs unaltered GLS3000,Binder
1,0.61,B1
2,0.23,B2
3,0.78,B3
4,0.48,B4
5,0.84,B5
6,0.33,B6
7,1.05,B7
8,0.58,B8
9,0.66,B9
10,0.5,B10
11,0.44,B11
12,0.63,B12
13,0.24,B13
14,0.44,B14
15,0.57,B15
16,0.77,B16
17,0.81,B17

row,ratio of amount bound vs unaltered GLS3000,Binder
1,0.96,B18
2,0.17,B19
3,0.51,B20
4,0.32,B21
5,0.76,B22
6,0.29,B23
7,1.26,B24
8,0.93,B25
9,0.71,B26
10,0.89,B27
11,0.93,B28
12,0.24,B29
13,0.3,B30
14,1.05,B31
15,0.64,B32
16,0.84,B33
17,0.66,B34

# Source: patent US20260049138A1 (Chugai, published 2026)
